Broadly, the koff is the first-order rate constant of dissociation. Read a high koff as fast dissociation. As a reminder, the kon is the rate constant with which the complex forms. As usually defined, the Kd is the equilibrium constant for the complex coming apart. Read a high Kd as weaker binding. By EC50 is commonly meant the concentration that produces a half-maximal response. The low end stands for higher potency in that assay, the high end for lower potency in that assay.

In assay [1] the target is T1, human pIgR extracellular domain 4-domain 5 (D4-D5) (human, UniProt P01833 350-565).
T1 construct: HIS-tagged construct made in HEK293 cells; also called hpIgR domains 4-5
T1 chain: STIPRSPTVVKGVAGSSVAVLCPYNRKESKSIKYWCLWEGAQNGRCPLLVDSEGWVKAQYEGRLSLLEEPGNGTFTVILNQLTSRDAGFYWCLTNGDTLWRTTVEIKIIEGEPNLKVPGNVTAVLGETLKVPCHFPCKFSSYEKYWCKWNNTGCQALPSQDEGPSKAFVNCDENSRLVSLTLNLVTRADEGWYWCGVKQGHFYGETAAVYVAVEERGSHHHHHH
Description: BLI: IgA binding to immobilized HIS-tagged hD4-D5. Background: BLI is a label-free optical method that tracks binding on a fibre tip over time.

A further assay has as its target T2, hD3-D4 (human, UniProt P01833).
T2 construct: HIS-tagged two-domain construct; also called human pIgR extracellular domain 3-domain 4 (D3-D4)
As to the kind of experiment: BLI response heat map (0-1.0 nm), HIS-tagged pIgR construct immobilized.

For assay [2], the target named is T3, hpIgR_D3.
T3 construct: HIS-tagged construct from HEK293 cells; also called human pIgR extracellular domain 3 (D3); hD3
T3 HIS-tagged domain construct: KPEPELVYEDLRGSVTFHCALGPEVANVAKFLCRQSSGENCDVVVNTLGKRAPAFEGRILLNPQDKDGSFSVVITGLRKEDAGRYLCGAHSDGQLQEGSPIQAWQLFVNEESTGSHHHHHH
The assay is described as above.

Assay [3] concerns the target T4, hpIgR_D2-D3.
T4 construct: HIS-tagged construct from HEK293 cells; also called human pIgR extracellular domain 2-domain 3 (D2-D3); hD2-D3
T4 HIS-tagged domain construct: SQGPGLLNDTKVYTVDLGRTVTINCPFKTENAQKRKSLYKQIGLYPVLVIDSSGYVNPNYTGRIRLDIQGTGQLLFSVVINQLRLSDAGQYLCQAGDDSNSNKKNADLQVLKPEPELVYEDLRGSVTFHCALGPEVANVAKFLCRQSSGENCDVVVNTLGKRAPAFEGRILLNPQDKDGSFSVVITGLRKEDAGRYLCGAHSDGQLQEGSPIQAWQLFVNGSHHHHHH
The description is as above.

Assay [4] addresses T5, hpIgR domain-1 with teleost fish CDR1 (hD1 tCDR1) (human, UniProt P01833 19-127, limits assumed).
T5 construct: CDR-swapped hpIgR domain-1 mutant, HIS-tagged, made in HEK293 cells; not shown: HIS tag
The description is as above.

In assay [5] the target is T6, hpIgR domain-1 with teleost fish CDR2 (hD1 tCDR2) (human, UniProt P01833 19-127, limits assumed).
T6 construct: CDR-swapped hpIgR domain-1 mutant, HIS-tagged, made in HEK293 cells; not shown: HIS tag
T6 chain: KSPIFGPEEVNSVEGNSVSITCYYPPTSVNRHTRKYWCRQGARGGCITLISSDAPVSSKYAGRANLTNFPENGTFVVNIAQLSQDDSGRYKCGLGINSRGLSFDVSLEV
Described as above.

Assay [6] addresses T7, human pIgR extracellular domain 2 (D2) (human, UniProt P01833 128-242).
T7 construct: HIS-tagged construct made in HEK293 cells; also called hpIgR domain 2
Described as above.

Assay [7] addresses T8, human pIgR extracellular domain 5 (D5) (human, UniProt P01833 460-565).
T8 construct: HIS-tagged construct made in HEK293 cells; also called hpIgR domain 5
The assay is described as above.

Assay [8] addresses T1, human pIgR extracellular domain …. Description: BLI: IgA binding to immobilized HIS-tagged hD4-D5; sheet says 'IgA binds hD4-D5 weakly'.
The target of assay [9] is T9, human pIgR, full-length, on cells (human, UniProt P01833 19-764). Description: cell-based or functional assay.
The target in assay [10] is T9, human pIgR, full-length, on cells. As to the kind of experiment: cell-based or functional assay. This is another data set of the same source.
Assay [11] has the same target. Description: flow cytometry on MDCK-hpIgR cells. A general note: Flow cytometry measures light scatter and fluorescence of single cells or particles in a stream.
Description: (§1) Flow Cytometry was performed as follows. To test whether VHH-mono-Fc molecules recognize cell-surface hpIgR, Madin-Darby canine kidney (MDCK) cells engineered to express full-length hpIgR were used. Cells were cultured in Dulbecco's modified Eagle's medium containing 10% fetal calf serum at 37° C. with 5% CO₂. Cells were split into equal fractions (≈70,000 cells) and incubated with increasing concentrations of VHH-mono-Fc molecules for 30 min at 4 C. […] Cells were washed twice with cold staining buffer, resuspended in running buffer and analyzed with an iQue Screener (IntelliCyt Corporation). Binding was assessed by RL1 (A647) Geomeans from the live cell population and EC50 was calculated by fitting log VHH concentration versus MFI in Prism (Graphpad).
The target in assay [12] is T10, human pIgR extracellular domain (ECD) (human, UniProt P01833 19-638).
T10 construct: also called hpIgR ECD
Description: BLI; summary table, repeats Table 1.

For assay [13], the target named is T10, human pIgR extracellular domain (ECD). As to the kind of experiment: BLI; summary table, repeats Table 1. The source holds these as a separate data set.
Assay [14] has the same target. Description: BLI (Octet), VHH-mono-Fc and hpIgR ectodomain.
The target is the same in assay [15]. As to the kind of experiment: ECL (MSD), hpIgR-ECD coated, anti-Fc detection.
For assay [16] the target is unchanged. Description: ECL (MSD), hpIgR-ECD coated, anti-VHH detection.
Description: To check whether VHH recognizes a buried epitope on pIgR, EC₅₀ values were measured for VHH-mono-Fc molecules binding to hpIgR-ECD protein by electrochemiluminescence using two different detection antibodies, an anti-Fc antibody and an anti-VHH antibody. pIgR ECD (10 μg/ml in PBS) was coated on high-bind MSD plates for 2 hours at RT with 1000 rpm, incubated with blocking buffer for 1 hour at RT, incubated with VHH-mono-Fc molecules (increasing concentrations in PBS) for 2 hours at RT with 1000 rpm, washed 3× with PBT, incubated with ruthenylated secondary antibody (2 μg/ml in PBS) for 1 hour at RT with 1000 rpm, washed 3× with PBT and read plates in 40 ul reading buffer using the MSD imager. EC50 was calculated by fitting log VHH concentration versus log ECLU in Prism (Graphpad). The increase in EC₅₀ (>50-fold) due to anti-VHH detection was used as a measure to determine whether VHH recognized buried epitope on pIgR.
For assay [17] the target is unchanged. Description: ECL (MSD), anti-VHH detection against anti-Fc detection.
Assay [18] shares this target. As to the kind of experiment: BLI (Octet RED384), 1:1 fit, 25 C, PBS.
Assay [19] concerns the target T9, human pIgR, full-length, on cells. As to the kind of experiment: flow cytometry on MDCK-hpIgR cells; summary table, repeats Table 1.
Description: as §1
The target is the same in assay [20]. The description is as above. The source holds these as a separate data set.
The target of assay [21] is T10, human pIgR extracellular domain (ECD). Description: BLI (Octet RED384), 1:1 fit, 25 C, PBS; column kdis.
In assay [22] the target is T1, human pIgR extracellular domain …. As to the kind of experiment: BLI (Octet RED384), 1:1 fit, 25 C, PBS; antigen printed 'hD4 D5'.
Description: (§2) Bio-layer Interferometry was performed as follows. […] Data were collected with Octet Data Acquisition version 7.1.0.87 (ForteBio) and analyzed using Octet Data Analysis version 7.1 (ForteBio). To measure binding kinetics between VHH-mono-Fc molecules and HIS-tagged pIgR proteins, VHH-mono-Fc was immobilized on amine-reactive generation-2 (ARG2) biosensors according to manufacturer's instructions and increasing concentrations of pIgR proteins were exposed to sensor-immobilized VHH. In some cases, HIS-tagged pIgR proteins were immobilized on anti-HIS biosensors and exposed to increasing concentrations of VHH-mono-Fc molecules. Association and dissociation rates were measured by the shift in wavelength (nm). […] All reactions were performed at 25° C. in PBS.
In assay [23] the target is T3, hpIgR_D3. As to the kind of experiment: ECL (MSD) heat map, HIS-tagged construct captured via anti-HIS, anti-human-Fc detection.
Description: (§3) A meso-scale discovery (MSD) platform was used for conducting epitope mapping and epitope burial studies. To test the binding of VHH-mono-Fc molecules to purified pIgR protein constructs, Streptavidin MSD plates were coated with a biotinylated anti-HIS antibody (2 μg/ml in PBS) for 1 hour at RT with 1000 rpm, washed 3× with PBT (PBS+0.1% Tween-20), incubated with blocking buffer for 1 hour at RT, incubated with His-tagged pIgR proteins (10 μg/ml in PBS) for 2 hours at RT with 1000 rpm, washed 3× with PBT, incubated with VHH-mono-Fc molecules (100 μg/ml in PBS) for 2 hours at RT with 1000 rpm, washed 3× with PBT, incubated with ruthenylated-anti-human-Fc antibody (2 μg/ml in PBS) for 1 hour at RT with 1000 rpm, washed 3× with PBT and read plates in 40 ul reading buffer using the MSD imager. ECLU values were plotted as a heatmap.
(§4) Binding of VHH-mFc molecules were tested to immobilized pIgR constructs by the electrochemiluminescence method.
Assay [24] addresses T11, human pIgR extracellular domain 1 (D1) (human, UniProt P01833 19-127).
T11 construct: HIS-tagged construct made in HEK293 cells; also called hpIgR domain-1
The assay is described as above.
Description: as §3, §4

In assay [25] the target is T7, human pIgR extracellular domain 2 (D2). The assay is described as above.
Description: as §3, §4
For assay [26], the target named is T8, human pIgR extracellular domain 5 (D5). The description is as above.
Description: as §3, §4
In assay [27] the target is T4, hpIgR_D2-D3. The description is as above.
Assay [28] concerns the target T12, human pIgR extracellular domain 1-domain 2 (D1-D2) (human, UniProt P01833 19-240).
T12 construct: HIS-tagged construct made in HEK293 cells
The description is as above.

Assay [29] has as its target T1, human pIgR extracellular domain …. As to the kind of experiment: BLI (Octet RED384), 1:1 fit, 25 C, PBS; column kdis; antigen printed 'hD4 D5'.
Description: as §2

T9 sequence (P01833 19-764): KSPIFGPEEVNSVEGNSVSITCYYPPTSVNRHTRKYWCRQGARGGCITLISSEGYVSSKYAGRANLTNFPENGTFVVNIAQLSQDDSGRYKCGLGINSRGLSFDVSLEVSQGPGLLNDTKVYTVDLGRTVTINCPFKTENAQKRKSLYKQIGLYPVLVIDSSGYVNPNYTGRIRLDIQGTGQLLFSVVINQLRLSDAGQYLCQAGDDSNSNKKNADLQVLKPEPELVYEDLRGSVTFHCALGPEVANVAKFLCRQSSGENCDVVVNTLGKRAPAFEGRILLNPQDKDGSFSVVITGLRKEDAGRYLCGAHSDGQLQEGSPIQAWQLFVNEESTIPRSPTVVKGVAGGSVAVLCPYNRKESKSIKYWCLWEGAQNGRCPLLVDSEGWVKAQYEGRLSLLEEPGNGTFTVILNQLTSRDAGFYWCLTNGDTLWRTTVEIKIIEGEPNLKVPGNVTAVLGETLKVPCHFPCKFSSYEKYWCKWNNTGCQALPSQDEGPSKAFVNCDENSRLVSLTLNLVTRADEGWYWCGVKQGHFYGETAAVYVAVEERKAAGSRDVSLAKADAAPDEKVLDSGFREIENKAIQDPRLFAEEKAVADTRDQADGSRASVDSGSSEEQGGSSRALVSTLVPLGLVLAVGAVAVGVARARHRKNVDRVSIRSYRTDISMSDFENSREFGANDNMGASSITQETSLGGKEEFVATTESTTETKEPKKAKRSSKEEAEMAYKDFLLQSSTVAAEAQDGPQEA
T10 sequence (P01833 other isoform, or with tags, fused parts or gaps): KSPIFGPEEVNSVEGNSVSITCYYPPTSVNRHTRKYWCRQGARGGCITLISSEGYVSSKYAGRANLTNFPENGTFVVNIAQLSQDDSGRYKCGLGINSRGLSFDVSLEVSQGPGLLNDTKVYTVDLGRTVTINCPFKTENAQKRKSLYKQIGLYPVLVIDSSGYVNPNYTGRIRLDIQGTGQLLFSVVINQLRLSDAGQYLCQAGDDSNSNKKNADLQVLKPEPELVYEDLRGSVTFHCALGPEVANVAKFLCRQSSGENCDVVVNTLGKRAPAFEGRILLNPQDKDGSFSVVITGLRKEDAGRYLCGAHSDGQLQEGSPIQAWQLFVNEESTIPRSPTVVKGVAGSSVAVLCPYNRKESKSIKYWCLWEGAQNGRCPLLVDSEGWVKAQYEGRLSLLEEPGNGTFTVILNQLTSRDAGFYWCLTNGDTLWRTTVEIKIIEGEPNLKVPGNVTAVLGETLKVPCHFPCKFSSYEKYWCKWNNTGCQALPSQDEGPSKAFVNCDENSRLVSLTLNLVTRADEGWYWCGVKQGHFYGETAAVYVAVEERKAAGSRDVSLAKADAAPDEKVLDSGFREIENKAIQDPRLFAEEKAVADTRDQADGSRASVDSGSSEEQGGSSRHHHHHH
T12 sequence (P01833 other isoform, or with tags, fused parts or gaps limits assumed): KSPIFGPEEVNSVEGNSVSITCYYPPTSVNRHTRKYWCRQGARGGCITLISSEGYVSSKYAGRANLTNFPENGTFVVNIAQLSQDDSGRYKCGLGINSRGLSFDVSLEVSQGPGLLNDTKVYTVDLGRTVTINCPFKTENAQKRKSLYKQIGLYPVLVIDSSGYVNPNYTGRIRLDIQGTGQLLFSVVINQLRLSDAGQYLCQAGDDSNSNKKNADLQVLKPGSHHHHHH
T2 sequence (P01833 240-459 limits assumed): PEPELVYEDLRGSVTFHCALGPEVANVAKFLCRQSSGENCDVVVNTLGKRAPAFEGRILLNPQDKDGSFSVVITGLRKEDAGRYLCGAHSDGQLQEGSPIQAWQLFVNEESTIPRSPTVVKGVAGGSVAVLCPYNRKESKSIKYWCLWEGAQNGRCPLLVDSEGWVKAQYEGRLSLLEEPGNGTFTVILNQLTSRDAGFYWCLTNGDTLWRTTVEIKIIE
T11 sequence (P01833 other isoform, or with tags, fused parts or gaps limits assumed): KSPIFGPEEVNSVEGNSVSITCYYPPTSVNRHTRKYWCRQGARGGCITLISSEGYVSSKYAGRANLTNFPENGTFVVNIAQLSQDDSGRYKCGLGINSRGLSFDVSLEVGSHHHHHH

B1: recombinant dimeric IgA2 construct (antibody)
heavy: QVQLVQSGAEVKKPGSSVKVSCKSSGGTSNNYAISWVRQAPGQGLDWMGGISPIFGSTAYAQKFQGRVTISADIFSNTAYMELNSLTSEDTAVYFCARHGNYYYYSGMDVWGQGTTVTVSSASPTSPKVFPLSLDSTPQDGNVVVACLVQGFFPQEPLSVTWSESGQNVTARNFPPSQDASGDLYTTSSQLTLPATQCPDGKSVTCHVKHYTNPSQDVTVPCPVPPPPPCCHPRLSLHRPALEDLLLGSEANLTCTLTGLRDASGATFTWTPSSGKSAVQGPPERDLCGCYSVSSVLPGCAQPWNHGETFTCTAAHPELKTPLTANITKSGNTFRPEVHLLPPPSEELALNELVTLTCLARGFSPKDVLVRWLQGSQELPREKYLTWASRQEPSQGTTTFAVTSILRVAAEDWKKGDTFSCMVGHEALPLAFTQKTIDRLAGKPTHVNVSVVMAEVDGTCY
light: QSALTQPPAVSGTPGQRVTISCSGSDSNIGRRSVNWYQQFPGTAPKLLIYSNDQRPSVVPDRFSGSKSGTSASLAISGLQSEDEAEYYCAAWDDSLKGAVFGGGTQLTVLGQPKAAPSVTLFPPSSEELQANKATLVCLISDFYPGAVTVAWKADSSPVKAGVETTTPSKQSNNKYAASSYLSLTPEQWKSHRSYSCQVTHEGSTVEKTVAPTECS
chain: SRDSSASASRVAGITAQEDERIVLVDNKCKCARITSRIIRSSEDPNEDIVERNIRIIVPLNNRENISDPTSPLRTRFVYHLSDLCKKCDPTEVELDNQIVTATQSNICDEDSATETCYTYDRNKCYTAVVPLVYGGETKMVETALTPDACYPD
notes: No sentence says outright that they are the dIgA2 of the assays; also called dIgA2; dIgA
Turning to B1, the koff in [1] turned out to be 0.0801 s⁻¹. In assay [1], the kon amounted to 78400 M⁻¹ s⁻¹. Moreover, the binding result (in the assay with hD3-D4; with hpIgR_D3 [2]; in the assay with hpIgR_D2-D3 [3]; in [4]; in assay [5]; in [6]) was “no binding” in each case. Besides, the binding result in [7] was “no binding”. This molecule returned a Kd in assay [8] of 1000 nM.

B2: VHH5-linker-mono-Fc protein (Fc fusion)
chain: QVQLVESGGGLVQAGGSLRLSCAASGRTFSSYAMGWFRQAPGKEREFVAAITWNGGTTYYADSVKGRFTISRDNAKNTVYLQMNSLKPEDTAVYYCAADPFNQGYWGQGTQVTVSSEPKTPKPQPQPQLQPQPNPTTESKSPKSPAPELLGGPSVFLFPPKPKDTLMISRTPEVTCVVVDVSHEDPEVKFNWYVDGVEVHNAKTKPREEQYNSTYRVVSVLTVLHQDWLNGKEYKCKVSNKALPAPIEKTISKAKGQPREPQVYTKPPSREEMTKNQVSLSCLVKGFYPSDIAVEWESNGQPENNYKTTVPVLDSDGSFRLASYLTVDKSRWQQGNVFSCSVMHEALHNHYTQKSLSLSPGK
notes: made in CHO cells; also called VHH5-mono-Fc; hpIgR_175
As to B2, the “Transcytosis (Fold Incr.)” value in assay [9] stood at 6.9 fold. Further, the “For. Trans. (Fold Incr.)” value in assay [10] amounted to 8.9 fold. Further, the “Rev. Trans (Fold Incr.)” value in [10] amounted to 2.1 fold. Also, the half-maximal effective concentration (EC50) amounted to 4.3 nM in assay [11]; 0.3 nM in assay [15]; 178 nM in assay [16]; 4.3 nM in assay [19]; 4.3 nM in assay [20]. In addition, the Kd worked out at 11 nM in [12]; 11 nM in [13]; 11 nM in [14]; 10 nM in [18]; 11.6 nM in [22]. The “Fold change in EC50” value in [17] was found to be 592 fold. Also, the kon in assay [18] worked out at 145000 M⁻¹ s⁻¹; in assay [22] it was 111000 M⁻¹ s⁻¹. The koff in [21] was 0.00145 s⁻¹; in [29], 0.00128 s⁻¹. Also, the binding result (with hpIgR_D3 [23]; in assay [24]; in assay [25]; in [26]; with hpIgR_D2-D3 [27]; in assay [28]) was “no binding (tested: 100 ug/ml (single concentration))” throughout.

The values above are taken from patent publication US20220324970A1 (Janssen / Centocor, published 2022).
